We go through five molecules from article PMC11347163, “Structural analysis of the BisI family of modification dependent restriction endonucleases”.

For orientation: stoichiometry N means the number of molecules, sites or subunits per partner or assembly.

The target in series [1] is NhoI (Nitrolancea hollandica). Description: crystal structure; sitting drop vapor diffusion at 18°C; proteins crystallised without DNA and as specific complexes with tetra-methylated GCNGC dsDNA, with Ca2+.
Series [2] addresses Eco15I_Ntd (N-terminal catalytic domain of Eco15I) (Escherichia coli strain 541-15). The series is described as above.
The target of series [3] is T1, Eco15I_Ntd (N-terminal catalytic domain of Eco15I) (UniProt A0A0L6ZWS4).
T1 sequence: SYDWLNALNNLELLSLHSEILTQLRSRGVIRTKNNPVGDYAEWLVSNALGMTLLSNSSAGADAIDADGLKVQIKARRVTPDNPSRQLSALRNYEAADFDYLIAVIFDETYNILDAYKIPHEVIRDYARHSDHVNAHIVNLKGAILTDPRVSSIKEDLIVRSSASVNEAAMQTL
Nature of the series: crystal structure; Ca2+ in active site; SPR: 20 mM HEPES pH 7.8, 50 or 150 mM KCl, 1 mM CaCl2, 1 mM DTT, 0.05% Tween-20, 25 C; EMSA: 20 mM HEPES pH 7.8, 50 mM KCl, 1 mM DTT, 1 mM CaCl2, on ice 30 min, unlabeled unmodified oligo or salmon sperm DNA competitor. The following applies: protein: recombinant; tags: 6xHis-SUMO removed by Ulp1; chain copies: 2; blunt.

Another series has as its target T2, NhoI (UniProt I4EG67).
T2 sequence: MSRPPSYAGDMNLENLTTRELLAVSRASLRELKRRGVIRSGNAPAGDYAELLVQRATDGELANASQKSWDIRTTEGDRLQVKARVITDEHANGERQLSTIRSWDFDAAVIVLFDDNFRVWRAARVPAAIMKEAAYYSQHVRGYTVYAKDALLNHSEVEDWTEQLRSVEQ
The description is as above. The following applies: protein: recombinant; tags: 6xHis-SUMO removed by Ulp1; chain copies: 2; blunt.

Series [4] concerns the target T1, Eco15I_Ntd (N-terminal catalytic domain …). Nature of the series: SPR; 1 mM Ca2+; 50 mM KCl; SPR: 20 mM HEPES pH 7.8, 50 or 150 mM KCl, 1 mM CaCl2, 1 mM DTT, 0.05% Tween-20, 25 C; EMSA: 20 mM HEPES pH 7.8, 50 mM KCl, 1 mM DTT, 1 mM CaCl2, on ice 30 min, unlabeled unmodified oligo or salmon sperm DNA competitor. The settings on record: protein: recombinant; tags: 6xHis-SUMO removed by Ulp1; chain copies: 2; label: 5' biotin. In general terms: Surface plasmon resonance follows binding to a sensor surface in real time, without labels.

The target in series [5] is T3, Eco15I_Ctd (C-terminal domain of Eco15I) (UniProt A0A0L6ZWS4).
T3 sequence: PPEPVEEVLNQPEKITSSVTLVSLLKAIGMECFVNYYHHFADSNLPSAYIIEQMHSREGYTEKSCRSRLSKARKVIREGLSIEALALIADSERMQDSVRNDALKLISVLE
The description is as above. The following applies: protein: recombinant; label: 5' biotin.

As to NhoI (enzyme), the stoichiometry N in series [1] was 2.

The molecule “Eco15I_Ntd (N-terminal catalytic domain of Eco15I) (domain or fragment)” returned a stoichiometry N in series [2] of 2.

B1: Eco15I_Ntd co-crystal duplex, tetramethylated GCAGC (dsDNA)
DNA 1: AAGCAGCAA
DNA 2: TTGCTGCTT
modifications: 5mC at positions 4 and 7 of strand 1; 5mC at positions 4 and 7 of strand 2
On to B1, for which the binding result in series [3] is on record as “binds”.

B2: NhoI co-crystal duplex, tetramethylated GCAGC (dsDNA)
DNA 1: CTGCAGCTC
DNA 2: GAGCTGCAG
modifications: 5mC at positions 4 and 7 of strand 1; 5mC at positions 4 and 7 of strand 2
Consider B2, for which the binding result with NhoI was “binds”.

B3: SPR duplex, four 5mC in GCNGC (dsDNA)
DNA 1: CGGTTGAGCAGCACCTCAGA
DNA 2: TCTGAGGTGCTGCTCAACCG
modifications: 5mC at both internal and both external cytosines
For B3, the figures for the binding result in series [4] and in series [5] were “binds” and “no binding”, respectively.
